From US20250115663A1 (CELLDEX THERAPEUTICS, published 2025) come the findings set out here.

For test [1], the target named is T1, soluble human CD40-MsIgG2a (human, UniProt P25942).
T1 construct: soluble, fused to mouse IgG2a; also called recombinant human CD40-msG2a chimeric protein; CD40-MsIgG2a (Celldex, 60 kD by SDS-PAGE)
The experiment in a line: BLI (Octet QKe), antibody captured on anti-human Fc (AHC) biosensors, analyte soluble human CD40-MsIgG2a 3.13 to 0.098 nM, 25 C, 1:1 fit. On the procedure: Purified antibodies from Example 1 were captured on Anti-Human Fc Capture (AHC) biosensors (Fortebio Product No. 18-5060). Each antibody was prepared in dilution buffer (10mMPO4+150 mM NaCl+1 mg/mL BSA+0.5% Tween 20, pH 7.2) to 0.5 μg/mL and loaded on freshly hydrated AHC biosensors for 35-50 sec at 25° C. and 1000 rpm plate shake speed to achieve a target response of 0.2 nm. Low levels of ligand were captured to limit any effects of mass transport of analyte on kinetic parameters. For one assay, eight biosensors were loaded with the same antibody.
Binding was determined by exposing six of the antibody loaded biosensors to analyte: soluble human CD40-MsIgG2a (Celldex, 60 kD by SDS-PAGE). Affinity measurements were determined using 2-fold serial dilutions of analyte ranging from 3.13 to 0.098 nM in dilution buffer at 25° C. and 1000 rpm plate shake speed. Association of the antibody loaded biosensors in analyte wells was carried out for 1200 seconds, the biosensors were then moved to dilution buffer wells for 2.5 hrs (9000 sec) for dissociation measurements.
Fortebio's Data Analysis Software version 8.2.0.7 (Pall ForteBio, Menlo Park, CA) was used in each case to derive kinetic parameters from the concentration series of analyte in dilution buffer binding to captured antibody. The association and dissociation curves were fitted to a 1:1 binding model using the data analysis software according to the manufacturer's guidelines.

Test [2] deals with T2, kappa-sCD40(1-94)-Flag point mutant E33A (human, UniProt P25942 21-114).
T2 construct: not shown: N-terminal human kappa light chain; C-terminal Flag tag
T2 chain: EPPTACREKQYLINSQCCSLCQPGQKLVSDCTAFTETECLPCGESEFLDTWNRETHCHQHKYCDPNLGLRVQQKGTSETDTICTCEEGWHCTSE
The test can be described thus: ELISA, mutated kappa-sCD40(1-94)-Flag captured on anti-Flag. In general terms: ELISA stands for enzyme-linked immunosorbent assay.

For test [3], the target named is T3, kappa-sCD40(1-94)-Flag mutant fragment D (multiple mutations of residues 33-36) (human, UniProt P25942 21-114).
T3 construct: The text says only multiple mutations of residues 33-36 (human to mouse differences); that mutant D carries exactly these is inferred; also called D (33-36); not shown: N-terminal human kappa light chain; C-terminal Flag tag
T3 chain: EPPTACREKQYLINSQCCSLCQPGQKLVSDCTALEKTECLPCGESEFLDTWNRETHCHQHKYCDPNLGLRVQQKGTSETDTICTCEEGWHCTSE
The test is described as above.

The target in test [4] is T4, recombinant human CD40-Fc (human, UniProt P25942 21-193).
T4 construct: also called soluble recombinant human CD40/Fc chimera from R&D Systems; not shown: The antibody Fc domain of the R&D Systems chimera and any linker to it
The test can be described thus: ELISA on coated recombinant human CD40-Fc, detection anti-human IgG F(ab')2-HRP, OD 450-650. The method, then:
Microtiter plates were coated with recombinant human CD40-Fc in PBS, and then blocked with 5% bovine serum albumin in PBS. […] The plates were washed with PBS/Tween and then incubated with a goat-anti-human IgG F(ab′)2-specific polyclonal reagent conjugated to horseradish peroxidase at 37° C. After washing, the plates were developed with HRP substrate, and analyzed at OD 450-650 using a microtiter plate reader.

The target in test [5] is T5, kappa-sCD40(1-94)-Flag point mutant P2Q (human, UniProt P25942 21-114).
T5 construct: not shown: N-terminal human kappa light chain; C-terminal Flag tag
T5 chain: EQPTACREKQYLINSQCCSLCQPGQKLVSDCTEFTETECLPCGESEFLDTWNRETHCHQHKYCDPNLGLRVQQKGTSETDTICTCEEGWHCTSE
The test can be described thus: ELISA, kappa-sCD40-Flag fusion captured on anti-Flag, anti-human IgG Fc-HRP.

The target in test [6] is T6, kappa-sCD40(1-94)-Flag mutant fragment C (multiple mutations of residues 25, 26, 28 and 30).
T6 construct: also called C (25, 26, 28, 30)
The description is as above.

In test [7] the target is T7, kappa-sCD40(1-94)-Flag mutant fragment B (multiple mutations of residues 13-15).
T7 construct: also called B (13-15)
The description is as above.

In test [8] the target is T8, kappa-sCD40-Flag fusion protein, fragment amino acids 36-130 (human, UniProt P25942 56-150).
T8 construct: not shown: N-terminal human kappa light chain; C-terminal Flag tag
The test can be described thus: ELISA, kappa-sCD40-Flag fragment captured on anti-Flag. On the procedure:
(§1) 1 μg/ml of purified kappa-sCD40-Flag fusion proteins or CHO cell supernatants containing the sCD40 fusion proteins were captured to microtiter plates that were pre-coated with 5 μg/ml mouse anti-Flag antibody (Sigma) in PBS and blocked with 5% bovine serum albumin in PBS. Following incubation with the CD40 antibody, the microplates were washed with PBS/Tween, and incubated with a goat anti-human IgG Fc polyclonal reagent conjugated to horseradish peroxidase. After washing, the plates were developed with HRP substrate, and analyzed at OD 450-650 using a microtiter plate reader. An ELISA with a goat anti-human IgG Fab2-HRP to measure kappa chain binding was carried out in parallel to validate the sCD40 fusion protein expression from different transfections.

Test [9] has as its target T9, kappa-sCD40-Flag fusion protein, full length ECD amino acid residues 1-173 (human, UniProt P25942 21-193).
T9 construct: also called full length sCD40; not shown: N-terminal human kappa light chain; C-terminal Flag tag
The test can be described thus: ELISA, kappa-sCD40-Flag fusion (~1 ug/ml) captured on anti-Flag, anti-human IgG Fc-HRP. On the procedure: as §1

Test [10] addresses T10, kappa-sCD40-Flag fusion protein, fragment amino acids 1-94 (human, UniProt P25942 21-114).
T10 construct: also called sCD40aa 1-94; not shown: N-terminal human kappa light chain; C-terminal Flag tag
Described as above. The method, then: as §1

Test [11] concerns the target T11, kappa-sCD40-Flag fusion protein, fragment amino acids 84-173 (human, UniProt P25942 104-193).
T11 construct: not shown: N-terminal human kappa light chain; C-terminal Flag tag
Described as above. On the procedure:
as §1

The target in test [12] is T8, kappa-sCD40-Flag fusion protein, …. The test is described as above. The method, then:
as §1

The Kd is the concentration at which binding is half-saturated. For orientation: EC50 (read off the curve) means the midpoint of the concentration-response curve. One may read the kon as the rate constant with which the complex forms. A low value points to slower complex formation.

T8 sequence (P25942 56-150): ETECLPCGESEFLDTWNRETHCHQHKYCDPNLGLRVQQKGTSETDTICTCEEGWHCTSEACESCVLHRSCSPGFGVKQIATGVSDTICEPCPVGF
T4 sequence (P25942 21-193 limits assumed, form in doubt): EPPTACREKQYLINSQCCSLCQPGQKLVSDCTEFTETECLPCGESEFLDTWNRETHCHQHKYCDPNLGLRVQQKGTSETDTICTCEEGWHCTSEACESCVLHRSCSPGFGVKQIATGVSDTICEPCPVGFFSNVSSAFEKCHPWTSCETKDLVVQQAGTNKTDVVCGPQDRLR
T11 sequence (P25942 104-193): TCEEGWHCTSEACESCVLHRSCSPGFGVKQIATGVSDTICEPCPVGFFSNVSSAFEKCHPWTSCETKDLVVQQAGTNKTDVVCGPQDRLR
T9 sequence (P25942 21-193): as the sequence (P25942 21-193 limits assumed, form in doubt) above

B1: anti-CD40 human monoclonal antibody 3G5 (antibody, human IgG2, V domains shown)
VH: QVQLVESGGGVVQPGKSLRLSCAASGFTFSSNGIHWVRQAPGKGLEWVAVIWSDGSNKFYADSVKGRFTISRDNSKNTLYLQMNSLRAEDTAVYYCARASGSGSYYNFFDYWGQGTLVTVSS
VL: EIVMTQSPATLSVSPGERATLSCRASQSVRSNLAWYQQKPGQAPRLLIYGASTRATGIPARFSGSGSGTEFTLTINSLQSEDFAVYYCQQHNKWITFGQGTRLEIK
notes: Human IgG2
On to B1, for which, in test [1], the Kd is 3.3 pM. In addition, the binding result in test [2] and in test [3] was “no binding” in each case. In addition, the “EC50 (read off the curve)” value in test [4] was about 400 pM.

B2: anti-CD40 human monoclonal antibody 3C3 (antibody, human IgG2, kappa, V domains shown)
VH: QVQLVESGGGVVQPGRSLRLSCAGSGFIFSRYGMYWVRQAPGKGLEWVAVIWYDGSYKYYADSVKGRFTISRDNSKNTLYLQMNSLRAEDTAVYYCARESPWYYFDYWGQGTLVTVSS
VL: DIQMTQSPSSLSASVGDRVTITCRASQGISNYLAWYQQKPGKVPKLLIYAASTLQSGVPSRFSGSGSGTDFTLTISSLQPEDVATYYCQKYKSAPFTFGPGTKVDIKR
notes: Human IgG2, C-terminal lysine removed; also called anti-CD40 mAb 3C3; CD40 antibody 3C3
As to B2, the OD in test [5] came to 2.2 OD 450-650; in [6], 2.02 OD 450-650; in test [7], 2.38 OD 450-650. In [1], this molecule displayed a Kd of 10.7 pM. The same molecule had a kon in [1] of 813000 M⁻¹ s⁻¹. The “EC50 (read off the curve)” value in test [4] is about 400 pM. Further, in test [8], the binding result was “no binding (tested: ~1 ug/ml fragment)”. Moreover, the “Average OD” value in [9] was 1.26 OD 450-650; in test [10], 1.8 OD 450-650; in [11] it was 0.024 OD 450-650; in test [12], 0.024 OD 450-650.
